Data as given in the supplement of paper PMC9112550, “Optimization of the antimicrobial peptide Bac7 by deep mutational scanning” (BMC Biology, 2022).

System: Escherichia coli TOP10
Experiment: shrunken log2 fold change of peptide-encoding DNA abundance (4.5 h post-induction vs induction); higher = less antimicrobial activity (less host growth inhibition)
Details: time post-induction: 4.5 h; library: site-saturation at positions 5, 18, 19, 20
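Also: peptides expressed intracellularly from a pBAD plasmid library in pooled LB shake-flask culture, induced with 0.3% L-arabinose, DNA abundance read by NGS, three biological replicates, DESeq2 with apeglm shrinkage.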

RRIRMRPPRLPRPRPRPHRSPRP
shrunken log2 fold change: -0.0246

RRIRCRPPRLPRPRPRPMVCPRP
shrunken log2 fold change: -0.143

RRIRCRPPRLPRPRPRPMEMPRP
shrunken log2 fold change: -0.193

RRIRDRPPRLPRPRPRPWFSPRP
shrunken log2 fold change: -0.317

RRIRPRPPRLPRPRPRPLLHPRP
shrunken log2 fold change: 0.0277

RRIRVRPPRLPRPRPRPPPVPRP
shrunken log2 fold change: 0.767

RRIRDRPPRLPRPRPRPGSIPRP
shrunken log2 fold change: 0.0264

RRIRWRPPRLPRPRPRPDLPPRP
shrunken log2 fold change: 0.0222

RRIRRRPPRLPRPRPRPLVYPRP
shrunken log2 fold change: -0.325

RRIRSRPPRLPRPRPRPIRFPRP
shrunken log2 fold change: -0.964

RRIRFRPPRLPRPRPRPHEMPRP
shrunken log2 fold change: -0.0108

RRIRLRPPRLPRPRPRPGYTPRP
shrunken log2 fold change: -0.349

RRIRQRPPRLPRPRPRPHIQPRP
shrunken log2 fold change: -0.444

RRIRERPPRLPRPRPRPYTPPRP
shrunken log2 fold change: -1

RRIRDRPPRLPRPRPRPKETPRP
shrunken log2 fold change: -0.0231

RRIRHRPPRLPRPRPRPMFWPRP
shrunken log2 fold change: 0.0114

RRIRVRPPRLPRPRPRPCAYPRP
shrunken log2 fold change: -0.336

RRIRPRPPRLPRPRPRPPCPPRP
shrunken log2 fold change: 0.294

RRIRMRPPRLPRPRPRPIILPRP
shrunken log2 fold change: -0.0572

RRIRTRPPRLPRPRPRPDKCPRP
shrunken log2 fold change: -0.229

RRIRARPPRLPRPRPRPLCKPRP
shrunken log2 fold change: 0.326

RRIRTRPPRLPRPRPRPDNEPRP
shrunken log2 fold change: -0.248

RRIRQRPPRLPRPRPRPADPPRP
shrunken log2 fold change: 0.209

RRIRRRPPRLPRPRPRPGNVPRP
shrunken log2 fold change: 0.418

RRIRHRPPRLPRPRPRPWSPPRP
shrunken log2 fold change: -0.697

RRIRYRPPRLPRPRPRPLTRPRP
shrunken log2 fold change: -0.0623

RRIRERPPRLPRPRPRPGPTPRP
shrunken log2 fold change: 0.215

RRIRVRPPRLPRPRPRPLQQPRP
shrunken log2 fold change: -0.55

RRIRERPPRLPRPRPRPYCTPRP
shrunken log2 fold change: -1.13

RRIRHRPPRLPRPRPRPKISPRP
shrunken log2 fold change: -0.395

RRIRMRPPRLPRPRPRPQDPPRP
shrunken log2 fold change: 0.786

RRIRWRPPRLPRPRPRPGWYPRP
shrunken log2 fold change: -0.0191

RRIRKRPPRLPRPRPRPMEVPRP
shrunken log2 fold change: 0.101

RRIRMRPPRLPRPRPRPCWQPRP
shrunken log2 fold change: 0.0757

RRIRPRPPRLPRPRPRPHLSPRP
shrunken log2 fold change: -0.142

RRIRIRPPRLPRPRPRPSREPRP
shrunken log2 fold change: -0.0977

RRIRVRPPRLPRPRPRPLLYPRP
shrunken log2 fold change: -0.259

RRIRLRPPRLPRPRPRPVWHPRP
shrunken log2 fold change: -0.047

RRIRSRPPRLPRPRPRPFQEPRP
shrunken log2 fold change: -0.0528

RRIRTRPPRLPRPRPRPFFCPRP
shrunken log2 fold change: -0.0401

RRIRLRPPRLPRPRPRPTSPPRP
shrunken log2 fold change: -0.0576

RRIRLRPPRLPRPRPRPSWKPRP
shrunken log2 fold change: 0.132

RRIRQRPPRLPRPRPRPFAPPRP
shrunken log2 fold change: 0.0897

RRIRPRPPRLPRPRPRPLWDPRP
shrunken log2 fold change: 0.00439

RRIRVRPPRLPRPRPRPWFAPRP
shrunken log2 fold change: -0.191

RRIRPRPPRLPRPRPRPTNTPRP
shrunken log2 fold change: -0.375

RRIRCRPPRLPRPRPRPRCIPRP
shrunken log2 fold change: -0.29

RRIRARPPRLPRPRPRPMERPRP
shrunken log2 fold change: 0.0157

RRIRERPPRLPRPRPRPCFGPRP
shrunken log2 fold change: -0.252

RRIRKRPPRLPRPRPRPSWYPRP
shrunken log2 fold change: -0.519

RRIRERPPRLPRPRPRPSMEPRP
shrunken log2 fold change: -0.14

RRIRLRPPRLPRPRPRPSCNPRP
shrunken log2 fold change: -0.661

RRIRDRPPRLPRPRPRPRCLPRP
shrunken log2 fold change: -0.0519

RRIRNRPPRLPRPRPRPWQWPRP
shrunken log2 fold change: 0.144

RRIRGRPPRLPRPRPRPGHWPRP
shrunken log2 fold change: 0.387

RRIRQRPPRLPRPRPRPSTCPRP
shrunken log2 fold change: -0.0113

RRIRQRPPRLPRPRPRPQASPRP
shrunken log2 fold change: 0.0433

RRIRCRPPRLPRPRPRPVNPPRP
shrunken log2 fold change: -0.176

RRIRGRPPRLPRPRPRPMTHPRP
shrunken log2 fold change: 0.708

RRIRTRPPRLPRPRPRPMSRPRP
shrunken log2 fold change: -0.361

RRIRDRPPRLPRPRPRPCQVPRP
shrunken log2 fold change: -0.0566

RRIRIRPPRLPRPRPRPLSEPRP
shrunken log2 fold change: -0.0382

RRIRIRPPRLPRPRPRPRHMPRP
shrunken log2 fold change: -0.12

RRIRVRPPRLPRPRPRPIWQPRP
shrunken log2 fold change: -0.114

RRIRIRPPRLPRPRPRPDTHPRP
shrunken log2 fold change: -1.12

RRIRNRPPRLPRPRPRPSQTPRP
shrunken log2 fold change: -0.00249

RRIRIRPPRLPRPRPRPFEVPRP
shrunken log2 fold change: -0.162

RRIRARPPRLPRPRPRPMKAPRP
shrunken log2 fold change: 0.0595

RRIRVRPPRLPRPRPRPYKEPRP
shrunken log2 fold change: 0.0231

RRIRMRPPRLPRPRPRPHVDPRP
shrunken log2 fold change: 0.51

RRIRCRPPRLPRPRPRPFRNPRP
shrunken log2 fold change: -0.0491

RRIRVRPPRLPRPRPRPSQFPRP
shrunken log2 fold change: -0.952

RRIRIRPPRLPRPRPRPIDIPRP
shrunken log2 fold change: -0.0353

RRIRNRPPRLPRPRPRPTFWPRP
shrunken log2 fold change: 0.323

RRIRLRPPRLPRPRPRPLKAPRP
shrunken log2 fold change: -0.153

RRIRSRPPRLPRPRPRPPHHPRP
shrunken log2 fold change: -0.0759

RRIRPRPPRLPRPRPRPDQDPRP
shrunken log2 fold change: 0.0461

RRIRVRPPRLPRPRPRPWSMPRP
shrunken log2 fold change: -0.014

RRIRCRPPRLPRPRPRPSSLPRP
shrunken log2 fold change: -0.555

RRIRLRPPRLPRPRPRPYRWPRP
shrunken log2 fold change: -0.0173

RRIRLRPPRLPRPRPRPKRAPRP
shrunken log2 fold change: 0.203

RRIRFRPPRLPRPRPRPGAGPRP
shrunken log2 fold change: 0.289

RRIRTRPPRLPRPRPRPTKEPRP
shrunken log2 fold change: -0.0327

RRIRARPPRLPRPRPRPRGQPRP
shrunken log2 fold change: 0.666

RRIRARPPRLPRPRPRPISDPRP
shrunken log2 fold change: 0.266

RRIRLRPPRLPRPRPRPCIFPRP
shrunken log2 fold change: -0.463

RRIRIRPPRLPRPRPRPIEVPRP
shrunken log2 fold change: -0.0018

RRIRPRPPRLPRPRPRPFYSPRP
shrunken log2 fold change: -0.161

RRIRYRPPRLPRPRPRPEIIPRP
shrunken log2 fold change: -0.0841

RRIRKRPPRLPRPRPRPDLYPRP
shrunken log2 fold change: -0.00937

RRIRHRPPRLPRPRPRPTPCPRP
shrunken log2 fold change: 0.00473

RRIRWRPPRLPRPRPRPASTPRP
shrunken log2 fold change: 0.349

RRIRLRPPRLPRPRPRPEMPPRP
shrunken log2 fold change: 0.365

RRIRGRPPRLPRPRPRPTHRPRP
shrunken log2 fold change: 0.454

RRIRMRPPRLPRPRPRPTPPPRP
shrunken log2 fold change: 1.17

RRIRARPPRLPRPRPRPHSYPRP
shrunken log2 fold change: 0.0128

RRIRHRPPRLPRPRPRPDWLPRP
shrunken log2 fold change: 0.0441

RRIRNRPPRLPRPRPRPQSEPRP
shrunken log2 fold change: -0.0564

RRIRERPPRLPRPRPRPWLYPRP
shrunken log2 fold change: 0.102

RRIRLRPPRLPRPRPRPGNQPRP
shrunken log2 fold change: -0.0104

RRIRYRPPRLPRPRPRPIALPRP
shrunken log2 fold change: -0.0389

RRIRARPPRLPRPRPRPYMHPRP
shrunken log2 fold change: -0.361

RRIRKRPPRLPRPRPRPILAPRP
shrunken log2 fold change: 0.0492

RRIRTRPPRLPRPRPRPGGQPRP
shrunken log2 fold change: 0.585

RRIRLRPPRLPRPRPRPALWPRP
shrunken log2 fold change: 0.754

RRIRARPPRLPRPRPRPWDYPRP
shrunken log2 fold change: 0.00145

RRIRKRPPRLPRPRPRPSIDPRP
shrunken log2 fold change: 0.175

RRIRKRPPRLPRPRPRPWFTPRP
shrunken log2 fold change: -0.00863

RRIRWRPPRLPRPRPRPCGDPRP
shrunken log2 fold change: 0.183

RRIRMRPPRLPRPRPRPQYAPRP
shrunken log2 fold change: 0.0122

RRIRTRPPRLPRPRPRPYKLPRP
shrunken log2 fold change: -0.215

RRIRFRPPRLPRPRPRPKHHPRP
shrunken log2 fold change: -0.282

RRIRDRPPRLPRPRPRPRWLPRP
shrunken log2 fold change: 0.511

RRIRERPPRLPRPRPRPCSIPRP
shrunken log2 fold change: -0.471

RRIRCRPPRLPRPRPRPKHLPRP
shrunken log2 fold change: -0.122

RRIRERPPRLPRPRPRPMDTPRP
shrunken log2 fold change: -0.501

RRIRNRPPRLPRPRPRPRWHPRP
shrunken log2 fold change: -0.114

RRIRSRPPRLPRPRPRPEEFPRP
shrunken log2 fold change: -0.00122

RRIRTRPPRLPRPRPRPTIQPRP
shrunken log2 fold change: -0.0327

RRIRQRPPRLPRPRPRPTYCPRP
shrunken log2 fold change: -0.0981

RRIRGRPPRLPRPRPRPFMPPRP
shrunken log2 fold change: -0.0647

RRIRYRPPRLPRPRPRPCGLPRP
shrunken log2 fold change: -0.107

RRIRKRPPRLPRPRPRPSPAPRP
shrunken log2 fold change: 0.478

RRIRTRPPRLPRPRPRPNELPRP
shrunken log2 fold change: -0.0115

RRIRTRPPRLPRPRPRPWHMPRP
shrunken log2 fold change: 0.0039
